According to IntAct's records for PubMed 19955405:

B1: Serine/threonine-protein kinase SRK2E (Arabidopsis thaliana (Mouse-ear cress)), Q940H6 (parent)
chain: MDRPAVSGPMDLPIMHDSDRYELVKDIGSGNFGVARLMRDKQSNELVAVKYIERGEKIDENVKREIINHRSLRHPNIVRFKEVILTPTHLAIVMEYASGGELFERICNAGRFSEDEARFFFQQLISGVSYCHAMQVCHRDLKLENTLLDGSPAPRLKICDFGYSKSSVLHSQPKSTVGTPAYIAPEVLLKKEYDGKVADVWSCGVTLYVMLVGAYPFEDPEEPKNFRKTIHRILNVQYAIPDYVHISPECRHLISRIFVADPAKRISIPEIRNHEWFLKNLPADLMNDNTMTTQFDESDQPGQSIEEIMQIIAEATVPPAGTQNLNHYLTGSLDIDDDMEEDLESDLDDLDIDSSGEIVYAM
partner: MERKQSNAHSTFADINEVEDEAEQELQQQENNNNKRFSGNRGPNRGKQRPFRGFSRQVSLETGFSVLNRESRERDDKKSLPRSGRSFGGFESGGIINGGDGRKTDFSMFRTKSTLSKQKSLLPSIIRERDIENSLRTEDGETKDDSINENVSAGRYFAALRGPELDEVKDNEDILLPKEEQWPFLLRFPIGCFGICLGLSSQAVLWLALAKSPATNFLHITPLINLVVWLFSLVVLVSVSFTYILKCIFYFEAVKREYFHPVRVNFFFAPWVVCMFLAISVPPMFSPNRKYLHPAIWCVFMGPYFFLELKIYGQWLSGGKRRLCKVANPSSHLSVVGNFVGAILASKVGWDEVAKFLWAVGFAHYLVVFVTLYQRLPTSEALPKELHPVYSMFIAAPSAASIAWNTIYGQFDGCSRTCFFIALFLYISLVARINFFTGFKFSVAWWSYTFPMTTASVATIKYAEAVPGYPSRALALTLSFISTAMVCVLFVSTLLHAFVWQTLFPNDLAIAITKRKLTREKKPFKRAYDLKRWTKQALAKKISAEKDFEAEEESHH

Variants of: B1
Settings: with slac1_arath SLAC1, Q9LD83

| Variant | effect of a mutation on the interaction |
| --- | --- |
| MDRPAVSGPMDLPIMHDSDRYELVKDIGSGNFGVARLMRDKQSNELVAVKYIERGEKIDENVKREIINHRSLRHPNIVRFKEVILTPTHLAIVMEYASGGELFERICNAGRFSEDEARFFFQQLISGVSYCHAMQVCHRALKLENTLLDGSPAPRLKICDFGYSKSSVLHSQPKSTVGTPAYIAPEVLLKKEYDGKVADVWSCGVTLYVMLVGAYPFEDPEEPKNFRKTIHRILNVQYAIPDYVHISPECRHLISRIFVADPAKRISIPEIRNHEWFLKNLPADLMNDNTMTTQFDESDQPGQSIEEIMQIIAEATVPPAGTQNLNHYLTGSLDIDDDMEEDLESDLDDLDIDSSGEIVYAM [D140A] | disrupting interaction |
